This data set deals with ribosomal protein L5 (TbL5) (Trypanosoma brucei). In words: EMSA. The note with it: EMSA: 10 mM Tris-HCl pH 7.4, 150 mM KCl, 0.1 mM DTT, 0.1 mM EDTA, 0.1% NP-40, 20 min room temperature; filter binding: 10 mM Tris pH 7.4, 1 mM EDTA, 100 mM …. For orientation: A gel shift assay detects complexes by their altered migration in electrophoresis.

As usually defined, the Kd is the constant that tells how readily two partners part at equilibrium. Read a high Kd as a looser complex.

In turn, T. brucei 5S rRNA gave a Kd of 12 nM.
